Experimental data: patent US7572444B2, “Binding proteins specific for human matriptase” (Amgen Fremont Inc., priority 2004, dated 2009)

Biological target: T1, Biotinylated-MTSP1 (Homo sapiens, UniProt Q9Y5Y6)
T1 sequence (Q9Y5Y6 615-855 limits assumed): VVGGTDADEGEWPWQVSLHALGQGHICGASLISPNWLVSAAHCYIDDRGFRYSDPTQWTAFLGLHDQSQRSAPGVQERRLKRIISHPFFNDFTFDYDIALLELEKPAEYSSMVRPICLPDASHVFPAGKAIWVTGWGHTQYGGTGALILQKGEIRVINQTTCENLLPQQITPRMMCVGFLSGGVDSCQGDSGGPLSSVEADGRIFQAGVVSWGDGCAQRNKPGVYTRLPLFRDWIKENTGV
Assay: Competition binding assay on sc95/96 coated plate
Settings: 125 ng/ml Biotinylated-MTSP1; HAI-1 titrated from 2 μg/ml, sc95/96 from 10 μg/ml
Description: This experiment was set-up to determine whether or not HAI-1 (the natural inhibitor of MT-SP1) would compete for binding to MT-SP1 with 95/96.
Bound MTSP was then detected with SA-pod.

B1: HAI-1: the natural inhibitor of MT-SP1 (protein, UniProt O43278 36-529, looked up)
Kunitz-type protease …: GPPPAPPGLPAGADCLNSFTAGVPGFVLDTNASVSNGATFLESPTVRRGWDCVRACCTTQNCNLALVELQPDRGEDAIAACFLINCLYEQNFVCKFAPREGFINYLTREVYRSYRQLRTQGFGGSGIPKAWAGIDLKVQPQEPLVLKDVENTDWRLLRGDTDVRVERKDPNQVELWGLKEGTYLFQLTVTSSDHPEDTANVTVTVLSTKQTEDYCLASNKVGRCRGSFPRWYYDPTEQICKSFVYGGCLGNKNNYLREEECILACRGVQGGPLRGSSGAQATFPQGPSMERRHPVCSGTCQPTQFRCSNGCCIDSFLECDDTPNCPDASDEAACEKYTSGFDELQRIHFPSDKGHCVDLPDTGLCKESIPRWYYNPFSEHCARFTYGGCYGNKNNFEEEQQCLESCRGISKKDVFGLRREIPIPSTGSVEMAVAVFLVICIVVVVAILGYCFFKNQRKDFHGHHHHPPPTPASSTVSTTEDTEHLVYNHTTRPL
For B1, the “competition for binding of MT-SP1 to sc95/96 coated plate” value was “prevented the binding of MT-SP1 to the plate”.
